What was measured:
[1] = system: αvβ3-expressing human lung xenograft tumors; test: αvβ3-expressing human lung xenograft with or without macrophage depletion; type: in vivo, nude mice
Description: Successful depletion of macrophages by clodronate treatment was confirmed by staining tumor sections for the mouse macrophage marker F4/80.

tumor cells [2] = test: In vitro ADCC with TAMs isolated from mouse Lewis lung carcinoma tumors; type: cell-based; conditions: effector: TAMs from LLC tumors grown in C57BL6 or athymic nude mice
Experimental: TAMs were isolated from tumor tissues as described (Kaneda, 2016). Tumors were dissociated in HBSS containing collagenase IV (Sigma, C5138), hyaluronidase (Sigma, H2654), dispase 11 (Roche, 04942078001), and DNase IV (Millipore, D5025) at 37° C. for 15 minutes. Cell suspensions were filtered through 70 μm cell strainers and washed with PBS. Single cell suspensions (10^6 cells/100 μl in 5% BSA in PBS) were incubated with Mouse BD Fc Block™ (BD Biosciences, 553142, 1:50) for 10 minutes at 4° C. and fluorescently labeled antibodies, CD11b (eBioscience, 17-0112-81, 1:100), and Ly-6G (eBioscience, 25-5931-81, 1:100), for one hour at 4° C. TAMs (CD11b-positive, Ly-6G-negative) were sorted.
(§1) We used the isolated macrophages as effector cells in an antibody-dependent cellular-cytotoxicity (ADCC) assay. […] The ratio of dead target cells (PI-positive) to the total target cell population (CFSE-positive) was calculated as described (Bracher, 2007).

tumor cells [3] = test: In vitro ADCC with human monocyte-derived macrophages from healthy donor blood (LM609); type: cell-based; conditions: effector: human monocyte-derived macrophages from healthy donor blood
Experimental: Human peripheral blood mononuclear cells (PBMCs) and macrophages were isolated using leukoreduction system chambers (LRSC) purchased from the San Diego Blood Bank. PBMCs were isolated from LRSC using Histopaque-1083 (Sigma, 10831) following the manufacturer's protocol. To obtain macrophages, PBMCs were incubated in tissue culture plates with human M-CSF (Peprotech, 300-25) for 5 days.
as §1

tumor cells [4] = test: In vitro ADCC with mouse NK cells; type: cell-based; conditions: effector: mouse NK cells
Experimental: as §1
To our surprise, LM609-mediated ADCC was not achieved with mouse NK cells or peripheral blood mononuclear cells (PBMCs) isolated from human blood, immune effector cell types to which antibodies are commonly engineered for optimal binding (Listinsky, 2013; Yu, 2017). In fact, NK cells are not correlated with β3 expression in tumors. These findings were reported in FIG. 3E of Wettersten et al., Cancer Res. 79:5048 (2019).

[5] = system: αvβ3-expressing human lung cancer cells; test: In vitro ADCC, primary human monocyte-derived macrophages as effector cells (FIG. 10A); type: cell-based; conditions: increasing E:T
Description: (A) In vitro ADCC for primary human monocyte-derived macrophages as effector cells. (B). In vitro ADCC for human NK cells as effector cells. Graphs show effect of increasing effector-to-target ratio (E:T) on death of αvβ3-expressing human lung cancer cells.
This distinction could produce a therapeutic advantage by achieving matching between the antigen (integrin αvβ3) and the types of effector cells that are particularly enriched in αvβ3-expressing tumors, such as macrophages.

integrin αvβ3 = biological target: T1, integrin αvβ3 (Mus musculus, UniProt O54890+P43406); conditions: mouse cells; Cheresh, 1987; cited from earlier work
T1 sequence (P43406 31-885 limits assumed): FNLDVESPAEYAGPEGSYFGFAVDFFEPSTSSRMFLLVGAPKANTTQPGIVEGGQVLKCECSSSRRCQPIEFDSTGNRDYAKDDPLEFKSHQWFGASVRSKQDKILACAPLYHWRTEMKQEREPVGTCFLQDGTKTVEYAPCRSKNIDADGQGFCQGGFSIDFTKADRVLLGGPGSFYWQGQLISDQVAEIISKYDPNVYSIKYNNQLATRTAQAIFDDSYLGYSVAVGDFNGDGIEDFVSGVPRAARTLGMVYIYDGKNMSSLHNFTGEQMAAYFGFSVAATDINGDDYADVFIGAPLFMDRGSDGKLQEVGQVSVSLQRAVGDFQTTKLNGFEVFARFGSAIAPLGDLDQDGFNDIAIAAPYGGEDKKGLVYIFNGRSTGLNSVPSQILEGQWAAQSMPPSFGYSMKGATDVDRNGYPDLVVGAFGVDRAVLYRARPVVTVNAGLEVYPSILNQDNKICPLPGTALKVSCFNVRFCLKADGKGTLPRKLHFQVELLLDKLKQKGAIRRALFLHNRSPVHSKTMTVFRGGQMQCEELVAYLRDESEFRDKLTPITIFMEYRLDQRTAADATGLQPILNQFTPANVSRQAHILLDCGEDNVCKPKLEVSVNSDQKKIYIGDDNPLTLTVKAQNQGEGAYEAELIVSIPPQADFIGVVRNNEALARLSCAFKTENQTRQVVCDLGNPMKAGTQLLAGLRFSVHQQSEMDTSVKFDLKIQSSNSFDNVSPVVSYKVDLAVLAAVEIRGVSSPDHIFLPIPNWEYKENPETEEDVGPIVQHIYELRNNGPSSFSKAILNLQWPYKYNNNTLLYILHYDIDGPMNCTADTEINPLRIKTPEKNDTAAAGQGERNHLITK
T1 sequence (P43406 887-1044 limits assumed): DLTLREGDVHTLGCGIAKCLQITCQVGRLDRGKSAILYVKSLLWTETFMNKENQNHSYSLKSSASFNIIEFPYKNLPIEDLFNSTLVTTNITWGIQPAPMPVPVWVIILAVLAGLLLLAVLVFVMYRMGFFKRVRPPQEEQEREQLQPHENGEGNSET
T1 sequence (O54890 26-787): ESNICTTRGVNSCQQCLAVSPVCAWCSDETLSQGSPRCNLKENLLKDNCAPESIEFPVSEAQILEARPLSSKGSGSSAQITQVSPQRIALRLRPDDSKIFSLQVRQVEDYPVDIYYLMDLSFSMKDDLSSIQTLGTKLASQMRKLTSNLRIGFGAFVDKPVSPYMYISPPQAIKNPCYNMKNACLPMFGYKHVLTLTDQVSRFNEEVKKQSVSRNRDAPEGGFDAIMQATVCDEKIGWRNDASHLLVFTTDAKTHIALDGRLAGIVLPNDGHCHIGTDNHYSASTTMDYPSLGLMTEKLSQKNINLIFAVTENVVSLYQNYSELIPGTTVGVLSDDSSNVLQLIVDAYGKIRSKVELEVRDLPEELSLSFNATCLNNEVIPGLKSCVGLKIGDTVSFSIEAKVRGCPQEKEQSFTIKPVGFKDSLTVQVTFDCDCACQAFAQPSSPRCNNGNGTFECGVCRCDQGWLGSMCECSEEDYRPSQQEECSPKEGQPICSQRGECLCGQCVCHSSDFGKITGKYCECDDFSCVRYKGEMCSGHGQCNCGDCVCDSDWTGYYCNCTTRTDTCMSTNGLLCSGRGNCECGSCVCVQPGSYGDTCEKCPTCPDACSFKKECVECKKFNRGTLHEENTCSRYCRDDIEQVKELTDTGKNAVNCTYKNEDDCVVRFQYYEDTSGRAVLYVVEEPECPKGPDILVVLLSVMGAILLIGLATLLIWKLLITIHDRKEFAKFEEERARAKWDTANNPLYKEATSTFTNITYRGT

B1: LM609: mouse monoclonal IgG1K antibody that recognizes human integrin αvβ3; SEQ ID NO:11 and 12 (antibody)
heavy: MNFGLRLIFLVLTLKGVKCEVQLVESGGGLVKPGGSLKLSCAASGFAFSSYDMSWVRQIPEKRLEWVAKVSSGGGSTYYLDTVQGRFTISRDNAKNTLYLQMSSLNSEDTAMYYCARHNYGSFAYWGQGTLVTVSAAKTTPPSVYPLAPGSAAQTNSMVTLGCLVKGYFPEPVTVTWNSGSLSSGVHTFPAVLQSDLYTLSSSVTVPSSTWPSETVTCNVAHPASSTKVDKKIVPRDCGCKPCICTVPEVSSVFIFPPKPKDVLTITLTPKVTCVVVDISKDDPEVQFSWFVDDVEVHTAQTQPREEQFNSTFRSVSELPIMHQDWLNGKEFKCRVNSAAFPAPIEKTISKTKGRPKAPQVYTIPPPKEQMAKDKVSLTCMITDFFPEDITVEWQWNGQPAENYKNTQPIMDTDGSYFVYSKLNVQKSNWEAGNTFTCSVLHEGLHNHHTEKSLSHSPGK
light: MVFTPQILGLMLFWISASRGDIVLTQSPATLSVTPGDSVSLSCRASQSISNHLHWYQQKSHESPRLLIKYASQSISGIPSRFSGSGSGTDFTLSINSVETEDFGMYFCQQSNSWPHTFGGGTKLEIKRADAAPTVSIFPPSSEQLTSGGASVVCFLNNFYPKDINVKWKIDGSERQNGVLNSWTDQDSKDSTYSMSSTLTLTKDEYERHNSYTCEATHKTSTSPIVKSFNRNEC
modifications: mAb LM609-mIgG1-kappa Heavy chain; mAb LM609-mIgG1-kappa Light chain
anti-tumor effect after macrophage depletion ([1]; macrophage depletion using clodronate liposomes): completely blocked
sensitivity of xenograft tumors to LM609 ([1]; reported in FIG. 2A of Wettersten et al.): highly sensitive
ADCC activity (tumor cells [2]): robust ADCC activity
ADCC (tumor cell killing) (tumor cells [3]): could also kill tumor cells
LM609-mediated ADCC (tumor cells [4]): not achieved
ADCC with human macrophages as effector cells [5]: able to induce ADCC
recognition of integrin αvβ3 (integrin αvβ3): not mouse cells
